Test results published in the supplement of paper PMC12764529.
± gives the half width of the 95% confidence interval.

Test: folding stability dG unfold from chymotrypsin proteolysis; higher = more stable
Summary of the method: (§1)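 Designed mini-proteins with no cysteine and under 80 residues were kept only if AlphaFold2 dimer inter-PAE was above 15. In a PA-tagged cDNA display construct, they were digested with trypsin and chymotrypsin and then sequenced. K50 was inferred by Bayesian fitting of counts, and unfolding free energy was derived per protease or combined against a sequence-predicted unfolded-state K50 and a shared folded-state K50.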

Point of comparison: “DYRVVIEDLELVPAPPGTRISMPAWVDHDGVRYGEVESYVDPETGTVTLRLLVEPDGEPRELTLTLPVPPES [r1_47_TrMRF]”, “folding stability dG unfold” value 0.629 ± 0.061 kcal/mol. Against it:
- SAGGKTKTYTFVLEDPVKKGIPVLAKVTVTYEPDENGNEVAPANVVVYYPDGKPEVLKVDVSNITGTGSAGG [r13_787_TrMRF] — higher, 1.11 ± 0.053 kcal/mol
- KIWIPNASWSQIKNIIRNAIKDGKERTIWIPMDPNMKPNIIDYLKDLPGIKDVEPYPNGWVKIEIDKAELKS [r1_324_TrROS] — higher, 3.23 ± 0.076 kcal/mol
- SAMTIKIEVINEKGEKIEITIPVKKEDLEKLKEEIEKELKKLAEEKGEKVKVEIVEVDENGYLKIRVYKSAG [r14_622_TrROS_Hall] — higher, 2.54 ± 0.059 kcal/mol
- SAGGSADELLDKLGLPPDNIRKIKPVEPNPNGMRQLELEWPYKENGKEWRITIMYSPDGIMIDIEPSAGGSA [r15_813_TrROS] — higher, 1.87 ± 0.053 kcal/mol
- SASITHTVPGVQVRAYLNPDGYMFIQVYNPNDGEPKQPIWMPPDHITDVEVTGDWVKITIKMDPEDFKLSAG [r14_755_TrROS] — higher, 2.32 ± 0.08 kcal/mol
- SAGGSAGGKKKIIKIKNKDGEYLIKVKTKDGKTVEFKKFKSLEEALKALPKEKIEKIEIIPLKKSAGGSAGG [r6_307_TrROS_Hall] — higher, 2.4 ± 0.1 kcal/mol
- SAGGSAGGSAGGKKYKITVPFKTKDGSGKPITSNFGKKKLEEILKKHPELKPAIEKALKKSAGGSAGGSAGG [r7_637_TrMRF] — higher, 1.37 ± 0.22 kcal/mol
- SAGGSAGGSAGGKPKVILLEGIKKIEVKDGKVTIEADEPVLLVIDEDGNVHIYRLPKEDLSAGGSAGGSAGG [r7_29_TrROS_Hall] — higher, 1.38 ± 0.099 kcal/mol
- SAGGSAGGSMVEGELPDAKVTVFFHPDGGALALVEFETETVLARIDVLPDDTLKITVIPAKDASAGGSAGGS [r12_669_TrMRF] — higher, 2.252 ± 0.01 kcal/mol
- SAGGAEEKIREIAEKLGVKEVLSADEAEKLPPEYPKRIAVVPRPDGSVLVIVRLENGEVLVIEFPVDSAGGS [r16_686_TrMRF] — higher, 2.49 ± 0.035 kcal/mol
- SAGGKLPKGAKIVSVEFDKETKEIRIKVEFYDKNGKLIKTIEKTIKIKPKPKLSEEEKKKLEEEKKKSAGGS [r16_697_TrROS_Hall] — higher, 1.46 ± 0.28 kcal/mol
- SAGGSAGGSMKTEVTVDEEGKYTVTVTPPDGSTVNLVVPPGDPAAAVAAAKAAGLEVEDIKAASAGGSAGGS [r12_891_JUSTAS] — lower, -0.241 ± 0.15 kcal/mol
- SAGGSAGGSKAEIVSVEKLPEEGELYLVKIRVDGKTYTIAVPVGSTVTIDVPPGAEIEIRKLPSAGGSAGGS [r12_373_TrROS_Hall] — higher, 2.619 ± 0.019 kcal/mol
- SAGGTIEITFMVRTPEEAEDMADMIARMLAREHGMKVTIDDVEVHEYKDPEDGQEYYMVEFRIEIKPSAGGS [r8_171_TrROS] — higher, 4.146 ± 0.04 kcal/mol
- SAGIKIEVEPSPGNGWYRIRIENPDLRKKLNEKFPDLKEITFPFKNPEDMPWEEMREHAIDQIKEFLPSAGG [r19_298_TrROS] — higher, 1.03 ± 0.15 kcal/mol
- SAGGSAGGSAGMIVVKSKEEIEALKKAGYEIEVKEVTVYDPKTGKKKDKFLVIEIKPKKKSAGGSAGGSAGG [r11_168_TrROS_Hall] — higher, 1.28 ± 0.06 kcal/mol
- SAGGSANPKPKIEIDKIYRMPDGQVHIPIEMERYDDDGQKETYPMDVTFNVPEGKPLTPNAIKDLISAGGSA [r15_836_TrROS] — lower, -0.924 ± 0.24 kcal/mol
- SAGGGMMTVTVTRVEREKPAGDEYLEKVLVTLPDSTLEATLTLKEKEEADKPPSVTVVPLEAVLALLASAGG [r13_540_JUSTAS] — lower, -0.274 ± 0.31 kcal/mol
- SAGGSAGGSAGGSSMVFELDGVRIVVTEDEVVFYPPETGKPVVLPMSNPEVQELIKELVSAGGSAGGSAGGS [r4_353_TrMRF] — higher, 1.78 ± 0.039 kcal/mol
- SAGGSAKTIEITLEDGSKVTITEVKDGYIRIYVSEEAKEALKKLGLEEVDEENNVITLPLEKLKKLSAGGSA [r15_984_TrROS_Hall] — higher, 1.86 ± 0.045 kcal/mol
- SAGGSAGGSGLTKELAKKFNVTAIEEFENGLVKILTKPPIKGNPYLAIIDPKNKKVYIIPLNPSAGGSAGGS [r12_944_TrMRF] — higher, 1.62 ± 0.082 kcal/mol
- SAGGSAGQKIQIERVQWNPEEGYFFIRIRYPGNGREIEHHIRLDNIEIELPPGAKITDIEIYPLPNSAGGSA [r15_959_TrROS] — higher, 1.83 ± 0.12 kcal/mol
- SVVRLPNGEWFEVDGRLVRVTVDEETGEIVDVEVYEVTVEEPPPPPPPLEVTVTVEPDAPPGATITITVTSA [r9_90_TrROS_Hall] — higher, 1.48 ± 0.12 kcal/mol
- SAGGMPTYTITITSPETGELKELPPNISQTFDPNNVTYYTFTSEEEAKEAIKLIAPQNGWKVTITSSSAGGS [r8_131_JUSTAS] — lower, -0.14 ± 0.52 kcal/mol
- SLPYTPSTAELTLTLPGGEVKVKANVYTLPDGSTITIATFPDGSVAVYDPSLGRLVLYDPSTGKPIAVLGSA [r9_970_TrMRF] — higher, 2.173 ± 0.013 kcal/mol
- SAGGMLLVEAPDGTTVEVTPEQAADLTPGAVVRHPSGDVWTYNPANDETVRIPWVSPAEVERAVAELSSAGG [r13_962_JUSTAS] — lower, -0.361 ± 0.12 kcal/mol
- SAGGSAGGSAYIPAEEIAEEVAAVLPPDEVALFPLPEKPLVVLVVREEDGVPRVLVLPPELASAGGSAGGSA [r18_61_TrMRF] — lower, 0.367 ± 0.093 kcal/mol
- SAGGEKEEIIKKLSKYPKNYRVLLKSPDGTLYEYSSPEEVIKMPLTLPNGKEVIIVKISPEKSPKLLSAGGS [r16_680_JUSTAS] — higher, 0.836 ± 0.098 kcal/mol
- SAGGSAGGSAGGMIVLKDPDPARLEARAEELRAELEAAGRELPPDVEIEVLEAEPDPALLSAGGSAGGSAGG [r7_965_JUSTAS] — lower, -0.568 ± 0.37 kcal/mol
- SAGGSAMKIVEKKTVTLTLPDGREVTVTLTKVEVDGETYYVLTVTDKDTGKTYTFVFKPGQSLEDLSAGGSA [r15_75_TrROS_Hall] — higher, 4.67 ± 0.083 kcal/mol
- SAGGSAGGFKIRPIGVDDNYIVFRFRPDDPEALKKLGFKITGVEESGGSVEIIFRMPPEAKDLISAGGSAGG [r6_109_TrROS] — lower, 0.399 ± 0.16 kcal/mol
- SAGGSAPVKLVVVYDEKTGEYRILAETPEGPVVFPFPRELFENIPLEDIAKLLNLEITEAVIVPNPSAGGSA [r15_801_TrMRF] — higher, 3.67 ± 0.13 kcal/mol
- SAGGSAGMTVTKTFTLPGYKVELTTHPGLPPDAPVTIEVTLTPPDGSVVKSTRTVLARPDDPSVLLSAGGSA [r15_10_JUSTAS] — higher, 2.73 ± 0.12 kcal/mol
- SAGGSAGGSSPDNKPVPPRFMIHVEIEPIKIPPEMREAAKDDPDNIDEIYVITIDVYFVGDDFSAGGSAGGS [r12_196_TrROS] — higher, 2.81 ± 0.07 kcal/mol
- SAGGSAGGSKKVTIVLSKEELRELFENLTPEQIAELLKKKFPKIKRVEVKEVDGKLVIEVEVESAGGSAGGS [r12_590_TrROS_Hall] — higher, 3.59 ± 0.1 kcal/mol
- SAGGSAGGSAGSMQTEVTFERGPGRLTTTTTTKFPDNRWSTTTSTSPVPARPPLPPAPVLLSAGGSAGGSAG [r3_68_JUSTAS] — lower, -0.709 ± 0.94 kcal/mol
- SFFVEFGIEHNPENNYIHINFRIYEPDPNGQWRPSSSIPITIPIKIPPPPVPKIEVPEGAKDPEDAADALSA [r9_888_TrROS] — higher, 4.43 ± 0.3 kcal/mol
- SMPEPLVLRVRVRDPENPEPVLEFELVIPPDGGVLVLARHPDRVEVREMPLEEAIDLLLSLPFEIEEVEGSA [r9_470_TrMRF] — higher, 3.32 ± 0.085 kcal/mol
- SAGGSAGGPEIRITEARRDPNGMFTFIVEIPPEDLDNIKPGEEIEITFNGQEFNFNVQIIPADDSAGGSAGG [r6_373_TrROS] — higher, 1.13 ± 0.2 kcal/mol
- SAGGSAGGSMKIRIERTPDKLTIMIPPDNPDKIKNIIDNFGYPITDVKVTQNPPGMHMIEIPLSAGGSAGGS [r12_493_TrROS] — higher, 1.47 ± 0.082 kcal/mol
- SAMPLLVKVTFYPKDPVTGIPSEEIEEKEVPDIEEAIKEVKKKLPKDNSAKIEVLDENGKLLKTIDLNLSAG [r14_234_JUSTAS] — higher, 0.885 ± 0.11 kcal/mol

Test: folding stability dG unfold from trypsin proteolysis; higher = more stable
Summary of the method: as §1

Point of comparison: “SAGGSAGGKKKIIKIKNKDGEYLIKVKTKDGKTVEFKKFKSLEEALKALPKEKIEKIEIIPLKKSAGGSAGG [r6_307_TrROS_Hall]”, “folding stability dG unfold” value 1.64 ± 0.085 kcal/mol. Against it:
- SAGGKTKTYTFVLEDPVKKGIPVLAKVTVTYEPDENGNEVAPANVVVYYPDGKPEVLKVDVSNITGTGSAGG [r13_787_TrMRF] — lower, 0.123 ± 0.13 kcal/mol
- KIWIPNASWSQIKNIIRNAIKDGKERTIWIPMDPNMKPNIIDYLKDLPGIKDVEPYPNGWVKIEIDKAELKS [r1_324_TrROS] — higher, 2 ± 0.059 kcal/mol
- SAMTIKIEVINEKGEKIEITIPVKKEDLEKLKEEIEKELKKLAEEKGEKVKVEIVEVDENGYLKIRVYKSAG [r14_622_TrROS_Hall] — higher, 2.75 ± 0.2 kcal/mol
- SAGGSADELLDKLGLPPDNIRKIKPVEPNPNGMRQLELEWPYKENGKEWRITIMYSPDGIMIDIEPSAGGSA [r15_813_TrROS] — lower, 0.834 ± 0.061 kcal/mol
- SASITHTVPGVQVRAYLNPDGYMFIQVYNPNDGEPKQPIWMPPDHITDVEVTGDWVKITIKMDPEDFKLSAG [r14_755_TrROS] — lower, 1.25 ± 0.052 kcal/mol
- SAGGSAGGSAGGKKYKITVPFKTKDGSGKPITSNFGKKKLEEILKKHPELKPAIEKALKKSAGGSAGGSAGG [r7_637_TrMRF] — lower, -0.163 ± 0.33 kcal/mol
- SAGGSAGGSAGGKPKVILLEGIKKIEVKDGKVTIEADEPVLLVIDEDGNVHIYRLPKEDLSAGGSAGGSAGG [r7_29_TrROS_Hall] — lower, 1.03 ± 0.07 kcal/mol
- SAGGSAGGSMVEGELPDAKVTVFFHPDGGALALVEFETETVLARIDVLPDDTLKITVIPAKDASAGGSAGGS [r12_669_TrMRF] — higher, 2.05 ± 0.05 kcal/mol
- SAGGAEEKIREIAEKLGVKEVLSADEAEKLPPEYPKRIAVVPRPDGSVLVIVRLENGEVLVIEFPVDSAGGS [r16_686_TrMRF] — lower, 1.45 ± 0.044 kcal/mol
- SAGGKLPKGAKIVSVEFDKETKEIRIKVEFYDKNGKLIKTIEKTIKIKPKPKLSEEEKKKLEEEKKKSAGGS [r16_697_TrROS_Hall] — lower, 0.96 ± 0.18 kcal/mol
- SAGGSAGGSMKTEVTVDEEGKYTVTVTPPDGSTVNLVVPPGDPAAAVAAAKAAGLEVEDIKAASAGGSAGGS [r12_891_JUSTAS] — lower, 0.0357 ± 0.061 kcal/mol
- SAGGSAGGSKAEIVSVEKLPEEGELYLVKIRVDGKTYTIAVPVGSTVTIDVPPGAEIEIRKLPSAGGSAGGS [r12_373_TrROS_Hall] — within error, 1.62 ± 0.038 kcal/mol
- SAGGTIEITFMVRTPEEAEDMADMIARMLAREHGMKVTIDDVEVHEYKDPEDGQEYYMVEFRIEIKPSAGGS [r8_171_TrROS] — higher, 3.23 ± 0.081 kcal/mol
- SAGIKIEVEPSPGNGWYRIRIENPDLRKKLNEKFPDLKEITFPFKNPEDMPWEEMREHAIDQIKEFLPSAGG [r19_298_TrROS] — lower, -0.197 ± 0.29 kcal/mol
- SAGGSAGGSAGMIVVKSKEEIEALKKAGYEIEVKEVTVYDPKTGKKKDKFLVIEIKPKKKSAGGSAGGSAGG [r11_168_TrROS_Hall] — lower, 1.25 ± 0.15 kcal/mol
- SAGGSANPKPKIEIDKIYRMPDGQVHIPIEMERYDDDGQKETYPMDVTFNVPEGKPLTPNAIKDLISAGGSA [r15_836_TrROS] — lower, -0.645 ± 0.064 kcal/mol
- SAGGGMMTVTVTRVEREKPAGDEYLEKVLVTLPDSTLEATLTLKEKEEADKPPSVTVVPLEAVLALLASAGG [r13_540_JUSTAS] — lower, 0.927 ± 0.019 kcal/mol
- SAGGSAGGSAGGSSMVFELDGVRIVVTEDEVVFYPPETGKPVVLPMSNPEVQELIKELVSAGGSAGGSAGGS [r4_353_TrMRF] — higher, 1.87 ± 0.054 kcal/mol
- SAGGSAKTIEITLEDGSKVTITEVKDGYIRIYVSEEAKEALKKLGLEEVDEENNVITLPLEKLKKLSAGGSA [r15_984_TrROS_Hall] — lower, 1.22 ± 0.052 kcal/mol
- SAGGSAGGSGLTKELAKKFNVTAIEEFENGLVKILTKPPIKGNPYLAIIDPKNKKVYIIPLNPSAGGSAGGS [r12_944_TrMRF] — lower, 0.849 ± 0.037 kcal/mol
